{"source": "patent US9315837B2", "about": "“Desaturases of a green microalga and uses thereof” (Ben Gurion University of the Negev Research and Development …, priority 2010, dated 2016)", "molecules": {"B1": {"name": "PiELO1: P. incisa Δ6 PUFA elongase, 289 amino acid residues, SEQ ID NO: 7 (protein, listed as Parietochloris incisa)", "chain": "MALTAAWHKYDAIVSRFVFDGLRRVGLQEIQGHPSVITAHLPFIASPTPQVTFVLAYLLIVVCGVAALRTRKSSAPREDPAWLRLLVQAHNLVLISLSAYMSSAACYYAWKYGYRFWGTNYSPKERDMGGLIYTFYVSKLYEFVDTLIMLLKGKVEQVSFLHVYHHASISTIWWAIAYVAPGGDAWYCCFLNSLVHVLMYTYYLLATLLGKDAKARRKYLWWGRYLTQFQMFQFVTMMLEAAYTWAYSPYPKFLSKLLFFYMITLLALFANFYAQKHGSSRAAKQKLQ"}}, "test_system": "supplied fatty acids in S. cerevisiae strain W303", "assay": "Functional expression of PiELO1 in S. cerevisiae fed with fatty acids, GC of FAMEs", "assay_type": "cell-based, Saccharomyces cerevisiae", "excerpt": "The ORF encoding for PiELO1 was amplified using PfuUltra II fusion HS DNA polymerase (Stratagene, La Jolla, Calif.) with the forward primer, 5′-[…] (PUFAEL5RES1) (SEQ ID NO: 33), containing a restriction site (underlined) and a yeast translation consensus followed by ATG (double underlined) and the reverse primer 5′-[…] (PUFAEL3RES2) (SEQ ID NO: 34) containing a restriction site (underlined) and a stop codon (double underlined). The amplified sequence was then restricted with EcoRI and XbaI (NEB, Ipswich, Mass.). The expected bands were gel-purified with NucleoSpin Extract II purification kit (Machery-Nagel GmbH, Duren, Germany) and ligated into a EcoRI-Xba1 cut pYES2 vector, yielding YpPiELO1. Saccharomyces cerevisiae strain W303 was transformed with YpPiELO1 by the PEG/lithium acetate method. The yeast cells harboring the empty pYES2 vector were used as control. Transformants were selected by uracil prototrophy on yeast synthetic medium (YSM) lacking uracil (Invitrogen, Carlsbad, Calif.). For functional expression, a minimal selection medium containing 2% (w/v) raffinose was inoculated with the YpPiELO1-transformants and grown at 27° C. for 24 h in a water bath shaker. Five ml of sterile YSM, containing 1% (w/v) Tergitol-40 and 250 µM of the appropriate fatty acid was inoculated with raffinose-grown cultures to obtain an OD of 0.2 at 600 nm. Expression was induced by adding galactose to a final concentration of 2% (w/v) and cultures were further grown at 27° C. for 48 h. Cells were harvested by centrifugation, washed twice with 0.1% NaHCO3, freeze-dried and used for fatty acid analysis.\nFatty acid methyl esters (FAMES) were obtained by transmethylation of the freeze-dried P. incisa or yeast biomass, with dry methanol containing 2% H2SO4 (v/v) and heating at 80° C. for 1.5 h while stirring under an argon atmosphere. Gas chromatographic analysis of FAMES was performed on a Thermo Ultra Gas chromatograph (Thermo Scientific, Italy) equipped with PTV injector, FID detector and a fused silica capillary column (30 m×0.32 mm; ZB WAXplus, Phenomenex). FAMES were identified by co-chromatography with authentic standards (Sigma Chemical Co., St. Louis, Mo.; Larodan Fine Chemicals, Malmo, Sweden) and FAME of fish oil (Larodan Fine Chemicals). Each sample was analyzed in duplicates of three independent experiments. The structures of fatty acids were confirmed by GC-MS of their pyrrolidine derivatives [W. W. Christie, The analysis of fatty acids in: W. W. Christie (Ed.), Lipid analysis Isolation, separation, identification and structural analysis of lipids, vol. […]"}
{"molecule": "B1", "values": [{"measurement": "elongation of supplied fatty acid", "setting": "substrate 18:3ω6 (GLA), product DGLA, 20:3ω6", "value": "elongated"}, {"measurement": "elongation of supplied fatty acid", "setting": "substrate 18:4ω3 (STA), product 20:4ω3", "value": "elongated"}, {"measurement": "elongation of supplied fatty acid", "setting": "substrate ARA", "value": "did not result in their elongation"}, {"measurement": "elongation of supplied fatty acid", "setting": "substrate LA", "value": "did not result in their elongation"}]}
